The text below walks through data of patent publication US20250051433A1.

The target in assay [1] is human long form TSLP expressed on cell membrane. In words: FACS on cells expressing the membrane human long-form TSLP fusion protein, MFI; ambiguous fit of a flat curve (Bottom 799.3, Top 857.9), see non_binding; unit taken from the concentration axis.
For assay [2] the target is unchanged. Put plainly: FACS on cells expressing the membrane human long-form TSLP fusion protein, MFI; ambiguous fit of a flat curve (Bottom 609.8, Top ~ 596.1), see non_binding; unit taken from the concentration axis.
Assay [3] shares this target. In words: FACS on cells expressing the membrane human long-form TSLP fusion protein, MFI; fit of a flat curve (Bottom 626.4, Top ~ 628.6), see non_binding; unit taken from the concentration axis.
Assay [4] addresses human long-form TSLP protein (Acro, tsp-h5255 or tsp-h52ha) (human) (UniProt Q969D9). In words: ELISA on coated human long-form TSLP, OD450; ambiguous fit of a flat curve (Bottom 0.07414, Top ~ 1078), see non_binding; unit taken from the concentration axis. On the technique in general: In an ELISA, binding on a coated surface is turned into a signal by an enzyme label.
The target of assay [5] is membrane short-form huTSLP fusion protein (human). In words: FACS on cells expressing membrane short-form huTSLP, MFI; ambiguous fit of a flat curve (Bottom 692.9, Top 827.7), see non_binding; unit taken from the concentration axis.
Chain of membrane short-form huTSLP fusion protein (human) (chain, as listed by the source limits assumed): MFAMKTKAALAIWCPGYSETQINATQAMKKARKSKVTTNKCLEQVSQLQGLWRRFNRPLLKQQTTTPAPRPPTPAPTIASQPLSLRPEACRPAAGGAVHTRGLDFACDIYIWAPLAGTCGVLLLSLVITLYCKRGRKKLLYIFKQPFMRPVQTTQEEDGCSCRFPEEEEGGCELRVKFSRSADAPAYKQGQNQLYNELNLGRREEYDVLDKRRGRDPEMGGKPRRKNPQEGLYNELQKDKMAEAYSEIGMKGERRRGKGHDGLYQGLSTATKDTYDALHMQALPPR
Assay [6] has as its target human long form TSLP expressed on cell membrane. In words: FACS on cells expressing the membrane human long-form TSLP fusion protein, MFI; fit of a flat curve (Bottom 695.0, Top 1001), see non_binding; unit taken from the concentration axis.
Assay [7] shares this target. In words: FACS on cells expressing the membrane human long-form TSLP fusion protein, MFI; ambiguous fit of a flat curve (~ 906.7, ~ 1190), column headed IC50, see non_binding; unit taken from the concentration axis.

Chain of human long form TSLP expressed on cell membrane (fusion protein, as listed by the source): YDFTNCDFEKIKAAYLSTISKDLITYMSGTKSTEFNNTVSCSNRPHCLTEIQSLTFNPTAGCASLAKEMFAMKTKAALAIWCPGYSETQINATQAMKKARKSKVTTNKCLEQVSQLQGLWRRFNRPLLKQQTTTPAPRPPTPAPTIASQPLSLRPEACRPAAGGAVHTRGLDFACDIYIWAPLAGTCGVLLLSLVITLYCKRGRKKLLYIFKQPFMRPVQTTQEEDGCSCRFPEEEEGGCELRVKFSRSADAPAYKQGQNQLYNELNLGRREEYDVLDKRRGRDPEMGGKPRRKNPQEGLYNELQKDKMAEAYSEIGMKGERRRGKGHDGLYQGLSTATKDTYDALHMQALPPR
Chain of human long-form TSLP protein (Acro, tsp-h5255 or tsp-h52ha) (human) (Q969D9 29-159 R127A/R130A limits assumed): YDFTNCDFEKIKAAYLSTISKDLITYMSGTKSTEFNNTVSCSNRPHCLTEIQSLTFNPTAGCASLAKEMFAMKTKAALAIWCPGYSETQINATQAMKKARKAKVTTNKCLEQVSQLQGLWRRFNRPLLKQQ

On to IgG2 Isotype (antibody), for which the EC50 in assay [1] stood at 0.0117 µg/mL; in assay [2] it was 0.322 µg/mL; in assay [3], 5.86 µg/mL.
With Isotype mAb (antibody), the results for the EC50 in assay [4] and in assay [5] were 40.8 µg/mL and 0.0115 µg/mL, respectively.
For Isotype (antibody), the EC50 was determined as 21.1 µg/mL in assay [6] and 0.0411 µg/mL in assay [7].

In general, EC50 refers to the concentration needed to bring the measured effect to its halfway point. A higher EC50 goes with lower potency in that assay.
